Here are results for one substance from patent US20020164767.

The data set concerns PFEK-protease C-E-6XHIS zymogen.
Chain of PFEK-protease C-E-6XHIS zymogen (chain, as listed by the source): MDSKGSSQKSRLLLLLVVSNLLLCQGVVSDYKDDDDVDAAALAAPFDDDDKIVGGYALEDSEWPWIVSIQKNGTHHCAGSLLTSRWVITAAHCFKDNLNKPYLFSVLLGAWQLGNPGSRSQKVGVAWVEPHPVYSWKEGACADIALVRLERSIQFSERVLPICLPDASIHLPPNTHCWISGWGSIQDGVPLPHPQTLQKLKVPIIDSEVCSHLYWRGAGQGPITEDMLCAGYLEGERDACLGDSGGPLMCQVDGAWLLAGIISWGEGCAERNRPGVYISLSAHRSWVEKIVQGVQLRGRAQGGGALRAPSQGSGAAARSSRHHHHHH

In the case of enterokinase, the “cleavage of the zymogen (SDS-PAGE and anti-FLAG Western blot)” value was “This demonstrates the quantitative cleavage of the expressed and purified zymogen to generate the processed and activated protease”.
